No end group written: not given here.
Key:
[1] = target: CCL21 (UniProt O00585); test: NMR titration
[2] = target: T1, CCL21 (Homo sapiens, UniProt O00585); test: 2D 15N-1H HSQC NMR titration of [U-15N] CCL21 with PSGL1 1–15 peptide; type: binding
T1 sequence (O00585 24-134): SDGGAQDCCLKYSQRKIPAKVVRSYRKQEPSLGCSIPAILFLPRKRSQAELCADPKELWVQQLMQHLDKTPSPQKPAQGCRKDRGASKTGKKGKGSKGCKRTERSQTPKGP

Substance | Kd [1] [µM] | Kd [2] [µM]
PSGL1 residues 1-15 peptide | 300 | 
QTAEYEYLDYDFLPE [PSGL1 peptide] |  | 300 ± 100
